For the data set, the target named is streptavidin (UniProt P22629 P22629:25-183). Briefly: EMSA; half-maximum binding (C1/2) via biotin on the adduct; reversed by free d-biotin; 100 mM NaCl, MgCl2, pH 7.4, room temperature. To be noted: tags: Pierce; chain copies: 4; label: 5' 32P. Here is the method:
Gel Mobility Shift Assay. […] A constant amount of the lesioned U-17 (3200 cpm, ~0.1 nM) was used in each incubation, with the concentration of streptavidin varied from 0 to 50 nM. Free d-biotin (0.4 mM) was added into the incubation(s) where indicated. After electrophoresis, the gel was dried and exposed to x-ray film with an intensifying screen. The dried gel was also exposed to a PhorphorImager screen and the data were analyzed with IMAGEQUANT software (Molecular Dynamics, Sunnyvale, Calif.).
On the technique in general: Mobility shift assays separate free from complexed probe on a gel.

Chain of streptavidin (P22629 25-183, one chain of several): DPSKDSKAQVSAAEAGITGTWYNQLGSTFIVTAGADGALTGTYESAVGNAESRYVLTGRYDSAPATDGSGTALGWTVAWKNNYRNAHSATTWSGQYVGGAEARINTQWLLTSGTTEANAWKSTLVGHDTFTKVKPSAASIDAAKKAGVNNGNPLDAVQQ

B1: TMP-biotin monoadducted U-17 (dsDNA)
DNA 1: CGGCCGTACGUGCGCCG
DNA 2: CGGCGCACGTACGGCCG
modifications: TMP-biotin (psoralen-biotin) monoadduct at T7 of the central TA; deoxyuridine at position 11
As a reminder, the Kd is the concentration at which binding is half-saturated. Consider B1, for which the Kd was ~1.5 nM.

Source of the values: US6500669, “Programmable genotoxic agents and uses therefor” (Massachusetts Institute of Technology).
